Entries after “also recorded” stand apart in the source; their conditions may differ.
Tested on: Staphylococcus aureus ATCC 6538
Test: Modified ASTM E2315 test of low pH therapeutic with AMPs, acid neutralized after one minute
Assay type: cell-based
Source text: Since the reaction speed of the two different MOAs are different, a modified test protocol was developed, which is summarized below. • a. […] Heretofore, it has been believed that AMPs are unstable in low pH environments. Mixture of dry powder immediately prior to use is believed to address concerns regarding minimization of in vitro stability. • b. The prepared AMP solution was then mixed with the bacteria containing media. After one minute the acid solution was neutralized. This simulates the short antimicrobial period for the elevated proton concentration in vivo. The bacteria population was measured to determine efficacy after one minute. • c. The AMPs retained in the solution are not expected to stop their antimicrobial activity after acid neutralization, so a second bacteria population measurement was made after 24 hours. [table]

B1: lactoferrin (protein, UniProt P02788 20-710, looked up)
Lactotransferrin: GRRRSVQWCAVSQPEATKCFQWQRNMRKVRGPPVSCIKRDSPIQCIQAIAENRADAVTLDGGFIYEAGLAPYKLRPVAAEVYGTERQPRTHYYAVAVVKKGGSFQLNELQGLKSCHTGLRRTAGWNVPIGTLRPFLNWTGPPEPIEAAVARFFSASCVPGADKGQFPNLCRLCAGTGENKCAFSSQEPYFSYSGAFKCLRDGAGDVAFIRESTVFEDLSDEAERDEYELLCPDNTRKPVDKFKDCHLARVPSHAVVARSVNGKEDAIWNLLRQAQEKFGKDKSPKFQLFGSPSGQKDLLFKDSAIGFSRVPPRIDSGLYLGSGYFTAIQNLRKSEEEVAARRARVVWCAVGEQELRKCNQWSGLSEGSVTCSSASTTEDCIALVLKGEADAMSLDGGYVYTAGKCGLVPVLAENYKSQQSSDPDPNCVDRPVEGYLAVAVVRRSDTSLTWNSVKGKKSCHTAVDRTAGWNIPMGLLFNQTGSCKFDEYFSQSCAPGSDPRSNLCALCIGDEQGENKCVPNSNERYYGYTGAFRCLAENAGDVAFVKDVTVLQNTDGNNNEAWAKDLKLADFALLCLDGKRKPVTEARSCHLAMAPNHAVVSRMDKVERLKQVLLHQQAKFGRNGSDCPDKFCLFQSETKNLLFNDNTECLARLHGKTTYEKYLGPQYVAGITNLKKCSTSPLLEACEFLRK
1-min Efficacy (log) (bacteria population after one minute, then acid neutralized, no soiling, single-replicant): 0.05 log
Efficacy on S. aureus, conclusion in words (comparison of Table 3 examples): minimal efficacy; also recorded: not effective
24-hour Efficacy (log) (second bacteria population measurement after 24 hours, acid neutralized after one minute): 0.16 log

Source: US20240000899A1, “THERAPEUTIC USEFUL AGAINST ANTIMICROBIAL RESISTANT AGENTS” (priority 2022, published 2024)
